Laboratory results: patent US20240101674A1 (OTTIMO PHARMA, published 2024)
Substitutions are numbered along the chain they refer to. In names and notes the source's numbering stands.

T1: cynomolgus monkey PD1 human Fc tagged recombinant protein (cynomolgus monkey, UniProt Q15116 25-170 (human entry), limits assumed)
T1 construct: also called cyno PD1-Fc; cyno PD1; not shown: human Fc tag
T1 chain: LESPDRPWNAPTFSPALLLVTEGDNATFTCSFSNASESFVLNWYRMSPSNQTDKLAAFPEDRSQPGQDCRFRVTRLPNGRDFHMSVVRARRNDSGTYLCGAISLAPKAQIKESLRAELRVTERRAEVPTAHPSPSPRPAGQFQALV

T2: rhesus VEGFR2 protein (rhesus monkey)
T2 construct: Recombinant protein used in ELISA; also called rhesus monkey VEGFR2; rh VEGFR2
T2 chain: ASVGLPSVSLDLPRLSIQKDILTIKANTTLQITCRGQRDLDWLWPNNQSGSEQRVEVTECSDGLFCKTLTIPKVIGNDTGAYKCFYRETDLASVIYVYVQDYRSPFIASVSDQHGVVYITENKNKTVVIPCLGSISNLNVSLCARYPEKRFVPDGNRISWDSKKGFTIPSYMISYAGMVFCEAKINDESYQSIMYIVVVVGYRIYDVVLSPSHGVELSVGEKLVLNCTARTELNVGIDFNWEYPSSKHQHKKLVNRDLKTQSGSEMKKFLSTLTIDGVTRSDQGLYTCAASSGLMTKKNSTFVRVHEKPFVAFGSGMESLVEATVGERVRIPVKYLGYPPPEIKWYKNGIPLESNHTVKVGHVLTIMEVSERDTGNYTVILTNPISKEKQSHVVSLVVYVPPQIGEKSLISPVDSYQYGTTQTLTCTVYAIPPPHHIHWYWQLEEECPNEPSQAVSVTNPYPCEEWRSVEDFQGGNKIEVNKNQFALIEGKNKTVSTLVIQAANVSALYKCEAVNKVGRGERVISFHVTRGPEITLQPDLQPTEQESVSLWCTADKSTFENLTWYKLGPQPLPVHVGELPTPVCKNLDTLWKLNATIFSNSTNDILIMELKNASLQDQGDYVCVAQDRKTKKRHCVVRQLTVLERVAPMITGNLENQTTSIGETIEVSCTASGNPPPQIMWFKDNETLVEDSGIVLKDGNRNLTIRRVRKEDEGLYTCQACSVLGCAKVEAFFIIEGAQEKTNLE

B1: hMAb005 Fab (Fab, V domains shown)
VH: EVQLVESGGGLVQPGGSLRLSCAASGFTFSSYMMSWVRQAPGKGLEWVATISGGGANTYYPDSVKGRFTISRDNAKNSLYLQMNSLRAEDTAVYYCARQLYYFDYWGQGTTVTVSS
VL: DIQMTQSPSSLSASVGDRVTITCLASQTIGTWLTWYQQKPGKAPKLLIYTATSLADGVPSRFSGSGSGTDFTLTISSLQPEDFATYYCQQVYSIPWTFGGGTKVEIK
notes: Human IgG1-kappa Fab, periplasmically expressed in E. coli, detected via c-myc; also called hMAb005 v-domains expressed as human IgG1 Fab; positive control hMAb005 Fab
B2: MAB02D08 Fab (Fab, V domains shown)
VH: B1 VH
VL: B1 VL with T28E, I29S, T31I, T34S
notes: Library-derived clone screened as human IgG1-kappa Fab in E. coli periplasmic extract; also called MAB02D08 (periprep Fab)
B3: MAB02A03 Fab (Fab, V domains shown)
VH: B1 VH
VL: B1 VL with P8S, T28G, T31P, T34S
notes: Library-derived clone screened as human IgG1-kappa Fab in E. coli periplasmic extract; also called MAB02A03 (periprep Fab)
B4: MAB02B03 Fab (Fab, V domains shown)
VH: B1 VH
VL: B1 VL with T28P, I29L, T31I, T34S
notes: Library-derived clone screened as human IgG1-kappa Fab in E. coli periplasmic extract; also called MAB02B03 (periprep Fab)
B5: MAB05E08 Fab (Fab, V domains shown)
VH: B1 VH
VL: B1 VL with Y92S, S93V, I94T, W96F
notes: Library-derived clone screened as human IgG1-kappa Fab in E. coli periplasmic extract; also called MAB05E08 (periprep Fab)
B6: MAB05G03 Fab (Fab, V domains shown)
VH: B1 VH
VL: B1 VL with Y92A, S93E, I94L, W96F, T97G
notes: Library-derived clone screened as human IgG1-kappa Fab in E. coli periplasmic extract; also called MAB05G03 (periprep Fab)
B7: hMAb005 IgG1 null (antibody, V domains shown)
VH: B1 VH
VL: B1 VL
notes: Tested as human IgG1 null (L234A, L235A, G237A) with human C kappa; also called humanized MAb005
B8: MAB04 IgG1 null (antibody, V domains shown)
VH: B1 VH
VL: B1 VL with T28G, T31P, T34S, Y92S, S93V, I94T, W96F
notes: Human IgG1 null format (L234A, L235A, G237A) with human C kappa; only variable domains are tied to the clone
B9: MAB06 IgG1 null (antibody, V domains shown)
VH: B1 VH
VL: B1 VL with T28E, I29S, T31I, T34S, Y92S, S93V, I94T, W96F
notes: as for B8
B10: MAB02 IgG1 null (antibody, V domains shown)
VH: B1 VH
VL: B1 VL with T28P, I29L, T31I, T34S, Y92A, S93E, I94L, W96F, T97G
notes: as for B8
B11: MAB05 IgG1 null (antibody, V domains shown)
VH: B1 VH
VL: B1 VL with T28P, I29L, T31I, T34S, Y92S, S93V, I94T, W96F
notes: as for B8
B12: MAB01 IgG1 null (antibody, V domains shown)
VH: B1 VH
VL: B1 VL with T28G, T31P, T34S, Y92A, S93E, I94L, W96F, T97G
notes: as for B8
B13: MAB05E08 IgG1 null (antibody, V domains shown)
VH: B1 VH
VL: B1 VL with Y92S, S93V, I94T, W96F
notes: as for B8
B14: MAB02D08 IgG1 null (antibody, V domains shown)
VH: B1 VH
VL: B1 VL with T28E, I29S, T31I, T34S
notes: as for B8
B15: MAB05G03 IgG1 null (antibody, V domains shown)
VH: B1 VH
VL: B1 VL with Y92A, S93E, I94L, W96F, T97G
notes: as for B8
B16: MAB02A03 IgG1 null (antibody, V domains shown)
VH: B1 VH
VL: B1 VL with P8S, T28G, T31P, T34S
notes: as for B8
B17: MAB02B03 IgG1 null (antibody, V domains shown)
VH: B1 VH
VL: B1 VL with T28P, I29L, T31I, T34S
notes: as for B8
B18: MAB06.8.2 IgG1 null (antibody, V domains shown)
VH: B1 VH with M33L, A56S, T58K, P61V, L100V
VL: DIQMTQSPSSLSASVGDRVTITCRASQESGIWLSWYQQKPGKAPKLLIYAASSLQSGVPSRFSGSGSGTDFTLTISSLQPEDFATYYCQQVSVTPFTFGGGTKVEIK
notes: Human IgG1 null format; only variable domains are tied to the clone
B19: MAB06.8.6 IgG1 null (antibody, V domains shown)
VH: B1 VH with M33L, A56S, T58K, P61V, F103Y
VL: B18 VL
notes: as for B18

Target: T3, human PD1 human Fc tagged recombinant protein (human, UniProt Q15116 25-170)
T3 construct: also called human PD1-Fc; hu PD1; not shown: human Fc tag
T3 sequence (Q15116 25-170 limits assumed): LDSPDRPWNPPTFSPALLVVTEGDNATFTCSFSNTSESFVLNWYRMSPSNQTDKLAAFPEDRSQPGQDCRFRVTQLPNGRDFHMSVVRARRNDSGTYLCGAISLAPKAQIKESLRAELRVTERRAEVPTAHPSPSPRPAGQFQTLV
Assay: periprep Fab direct binding ELISA (FIG. 1)

| binding result | Binder |
| --- | --- |
| binds | B1 |

Target: T1, cynomolgus monkey PD1 human Fc tagged …
Assay: periprep Fab direct binding ELISA (FIG. 1)

| binding result | Binder |
| --- | --- |
| binds | B2 |
| binds | B1 |
| binds | B3 |
| binds | B4 |
| binds | B5 |
| binds | B6 |

Target: T4, human VEGFR2 protein (human, UniProt P35968 20-764)
T4 construct: Recombinant protein used in ELISA; also called hu VEGFR2; KDR
Assay: periprep Fab direct binding ELISA (FIG. 1)

| binding result | Binder |
| --- | --- |
| binds | B2 |
| binds | B3 |
| binds | B4 |
| binds | B5 |
| binds | B6 |

Target: T2, rhesus VEGFR2 protein
Assay: periprep Fab direct binding ELISA (FIG. 1)

| binding result | Binder |
| --- | --- |
| binds | B2 |
| binds | B3 |
| binds | B4 |
| binds | B5 |
| binds | B6 |

Target: T3, human PD1 human Fc tagged recombinant …
Assay: direct titration ELISA, IgG1 null on coated PD1-Fc (FIG. 3A)
Protocol: (§1) Binding and cross-reactivity of the lead panel to the recombinant proteins was initially assessed by binding ELISA. The human PD1 human Fc tagged recombinant protein and the cynomolgus monkey PD1 human Fc tagged recombinant protein were coated to the surface of MaxiSorp™ flat-bottom 96 well plate at 1 μg/ml. The purified Fab or IgG samples were titrated in two fold serial dilutions starting from 500 nM to 0.98 nM and allowed to bind to the coated antigens. The Fabs were detected using mouse anti-c-myc antibody followed by donkey anti-mouse IgG conjugated to horseradish peroxidase. The IgGs were detected using the mouse anti-human IgG conjugated to horseradish peroxidase. Binding signals were visualized with 3,3′,5,5′-Tetramethylbenzidine Substrate Solution (TMB) and the absorbance measured at 450 nm.

| binding result | Binder |
| --- | --- |
| binds | B7 |
| binds | B8 |
| binds | B9 |
| binds | B10 |
| binds | B11 |
| binds | B12 |

Target: T1, cynomolgus monkey PD1 human Fc tagged …
Assay: as above
Protocol: as §1

| binding result | Binder |
| --- | --- |
| binds | B7 |
| binds | B8 |
| binds | B9 |
| binds | B10 |
| binds | B13 |
| binds | B14 |
| binds | B15 |
| binds | B11 |
| binds | B16 |
| binds | B12 |
| binds | B17 |

Target: T4, human VEGFR2 protein
Assay: direct titration ELISA, IgG1 null on VEGFR2 protein (FIG. 3B)

| binding result | Binder |
| --- | --- |
| binds | B8 |
| binds | B9 |
| binds | B13 |
| binds | B14 |
| binds | B15 |
| binds | B11 |
| binds | B16 |
| binds | B12 |
| binds | B17 |

Target: T2, rhesus VEGFR2 protein
Assay: as above

| binding result | Binder |
| --- | --- |
| binds | B8 |
| binds | B9 |
| binds | B13 |
| binds | B14 |
| binds | B15 |
| binds | B11 |
| binds | B16 |
| binds | B12 |
| binds | B17 |

Target: T4, human VEGFR2 protein
Assay: direct titration ELISA, IgG1 null on VEGFR2 protein (FIG. 12C)

| binding result | Binder |
| --- | --- |
| binds | B18 |
| binds | B19 |

Target: T5, biotinylated human PD1-His/AviTag (human, UniProt Q15116 25-170, limits assumed, biotinylated)
T5 construct: also called human PD1 protein (Alphascreen); not shown: His/AviTag
T5 sequence (Q15116 25-170 limits assumed): as above
Assay: Alphascreen epitope competition, Fab periprep; competitor hMAb005 IgG1 null on biotinylated human PD1-His/AviTag
Protocol: FIG. 2A-FIG. 2B. Epitope competition analysis of Fab proteins in Alphascreen Anti-PD1 clones were expressed as Fab in E. coli and peripreps were applied in an epitope competition assay using Alphascreen technology.
The AlphaScreen assay (Perkin Elmer) was performed in a 25 μl final volume in 384-well white microtiter plates (Greiner). The reaction buffer contained 1×PBS pH 7.3 (Oxoid, Cat. nr. BR0014G) and 0.05% (v/v) Tween® 20 (Sigma, Cat. nr. P9416). Periprep samples diluted in reaction buffer were incubated with biotinylated human PD1-His/AviTag at 0.6 nM final concentration for 20 minutes at room temperature. […] The emission of light was measured in the EnVision multilabel plate reader (Perkin Elmer) and analysed using the EnVision manager software. Values were reported as Counts Per Second (CPS) and corrected for crosstalk. Signal reduction percentages were calculated relative to the irrelevant sample.

| percentage signal reduction of hMAb005/PD1 interaction [%] | Binder |
| --- | --- |
| > 75 | B2 |
| 75 | B3 |
| > 75 | B4 |
| > 75 | B5 |
| > 75 | B6 |
